The kon is the second-order rate constant of association. For orientation: Kd means the free concentration of one partner at which half of the binding sites on the other are occupied at equilibrium, for simple one-to-one binding. Lower therefore signals higher affinity.

Assay [1] has as its target activated factor X (FXa) (human). In words: kinetics of protease inhibition.
For assay [2], the target named is activated factor XI (FXIa) (human). In words: kinetics of protease inhibition.

Numbering of substitutions follows the chain as printed. Names may count otherwise.

activated factor X (FXa) (human), sequence (P00742 whole entry): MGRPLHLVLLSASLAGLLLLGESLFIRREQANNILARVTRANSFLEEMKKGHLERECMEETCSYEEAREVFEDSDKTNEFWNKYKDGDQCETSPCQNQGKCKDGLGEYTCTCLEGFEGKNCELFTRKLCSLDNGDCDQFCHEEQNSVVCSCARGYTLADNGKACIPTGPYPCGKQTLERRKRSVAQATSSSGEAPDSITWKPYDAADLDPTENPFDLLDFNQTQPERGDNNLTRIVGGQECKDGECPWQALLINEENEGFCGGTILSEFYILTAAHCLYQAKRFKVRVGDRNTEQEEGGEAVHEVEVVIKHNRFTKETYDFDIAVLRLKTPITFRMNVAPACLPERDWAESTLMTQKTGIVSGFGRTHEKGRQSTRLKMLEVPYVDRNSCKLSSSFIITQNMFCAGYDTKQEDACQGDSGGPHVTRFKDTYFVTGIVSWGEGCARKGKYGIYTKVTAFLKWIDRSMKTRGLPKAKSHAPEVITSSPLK

B1: protein Z-dependent protease inhibitor (ZPI), wild type, recombinant human (natural protein)
chain: LAPSPQSPETPAPQNQTSRVVQAPKEEEEDEQEASEEKASEEEKAWLMASRQQLAKETSNFGFSLLRKISMRHDGNMVFSPFGMSLAMTGLMLGATGPTETQIKRGLHLQALKPTKPGLLPSLFKGLRETLSRNLELGLTQGSFAFIHKDFDVKETFFNLSKRYFDTECVPMNFRNASQAKRLMNHYINKETRGKIPKLFDEINPETKLILVDYILFKGKWLTPFDPVFTEVDTFHLDKYKTIKVPMMYGAGKFASTFDKNFRCHVLKLPYQGNATMLVVLMEKMGDHLALEDYLTTDLVETWLRNMKTRNMEVFFPKFKLDQKYEMHELLRQMGIRRIFSPFADLSELSATGRNLQVSRVLQRTVIEVDERGTEAVAGILSEITAYSMPPVIKVDRPFHFMIYEETSGMLLFLGRVVNPTLL
Take B1: in assay [1], the ka with equimolar PZ and lipids, no FVa stood at 1.79e+06 M⁻¹ s⁻¹; the ka with equimolar PZ, lipids and FVa came out at 296000 M⁻¹ s⁻¹; the association rate constant (kon) is 9200 M⁻¹ s⁻¹. Besides, in assay [2], the Kd was determined as 2 nM and the kon turned out to be 86200 M⁻¹ s⁻¹.

B2: D293A/Y387D ZPI (double mutant of the protein Z-dependent protease inhibitor; P1 residue Y387 changed) (natural protein)
chain: B1 chain with D293A, Y387D
In turn, B2 had a kon in assay [2] of 2600 M⁻¹ s⁻¹.

B3: D293A ZPI (protein Z-dependent protease inhibitor with Asp 293 mutated to Ala), recombinant human (natural protein)
chain: B1 chain with D293A
In assay [1], B3 displayed a ka with equimolar PZ and lipids, no FVa of 85000 M⁻¹ s⁻¹; a ka with equimolar PZ, lipids and FVa of 6800 M⁻¹ s⁻¹; a kon of 9500 M⁻¹ s⁻¹. In addition, in assay [2], the Kd amounted to 2 nM and the kon was 112000 M⁻¹ s⁻¹.

These data come from paper PMC12018148.
